This data set concerns the molecule itself. Kind of data set: NMR backbone 15N relaxation (R2/R1, model-free analysis); pH 7.0, 5.0, 4.5 and 4.0; 25 °C, 800 MHz; 50 mM sodium phosphate, 45 mM citric acid.

B1: E. coli HdeB (natural protein, UniProt P0AET2 30-108, looked up)
chain: ANESAKDMTCQEFIDLNPKAMTPVAWWMLHEETVYKGGDTVTLNETDLTQIPKVIEYCKKNPQKNLYTFKNQASNDLPN
notes: HdeB, periplasmic acid-resistant chaperone of E. coli; 79 residues; numbers count on: the mature protein, with the signal peptide excluded; Expressed from pET-28a(+); It speaks of 79 residues and numbers them on the mature protein; Samples were 15N- or 13C/15N-labelled; Each monomer has a Cys10-Cys58 disulfide bridge; also called HdeB dimer; HdeB homo-dimer; source: E. coli BL21(DE3)-T1R, …
In the case of B1, the “stoichiometry N” value worked out at 2.

For the origin of these results see publication PMC4655364, “HdeB chaperone activity is coupled to its intrinsic dynamic properties” (Scientific Reports, 2015).
